Columns and labels:
[1] = biological target: T1, human CD73 on CHO-K1 cells overexpressing human CD73 (human, UniProt P21589 27-549); assay: flow cytometry on CHO-K1 cells overexpressing human CD73 (CHO-K1-hCD73)
T1 construct: whole, on cells; also called CHO-K1-hCD73
T1 sequence (looked up): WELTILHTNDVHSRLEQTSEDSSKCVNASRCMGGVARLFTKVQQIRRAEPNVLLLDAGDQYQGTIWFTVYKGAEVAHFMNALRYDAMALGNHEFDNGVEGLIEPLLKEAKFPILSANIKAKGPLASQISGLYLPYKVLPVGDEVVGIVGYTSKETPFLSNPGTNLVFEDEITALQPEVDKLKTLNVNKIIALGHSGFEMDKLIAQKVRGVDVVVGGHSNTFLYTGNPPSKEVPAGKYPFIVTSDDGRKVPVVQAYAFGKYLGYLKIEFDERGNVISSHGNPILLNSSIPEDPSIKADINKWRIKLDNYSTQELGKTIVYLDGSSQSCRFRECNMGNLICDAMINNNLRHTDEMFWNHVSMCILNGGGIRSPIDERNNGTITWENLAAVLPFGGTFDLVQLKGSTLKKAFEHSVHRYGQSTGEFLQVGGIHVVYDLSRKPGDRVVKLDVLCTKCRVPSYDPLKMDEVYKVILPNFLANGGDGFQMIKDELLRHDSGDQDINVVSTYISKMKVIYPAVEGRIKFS
Procedure: (§1) In order to investigate the binding activity of the CD73×PD-L1 bispecific antibody to human CD73 and PD-L1, the binding experiment at the cellular level was performed using CHO-K1 cell strains overexpressing human CD73 or PD-L1 (CHO-K1-hCD73 or CHO-K1-hPD-L1). Briefly, the CHO-K1-hCD73 and CHO-K1-hPD-L1 cells were digested and resuspended in an F-12K complete medium, and the cell density was adjusted to 1×10⁶ cells/mL. The cells were seeded in a 96-well V-bottom plate (Corning, #3894) at 100 μL/well, followed by the addition at 100 μL/well and centrifugation at 500 g at 4° C. for 5 min, and then the supernatant was discarded. Antibodies were 3-fold diluted to a maximum final concentration of 50 nM, and a total of 8 concentrations were set. 100 μL of the diluted antibodies was added to the cells, and the cells were incubated away from light at 4° C for 1 h. Thereafter, the cells in each well were rinsed twice with 100 μL of pre-cooled PBS, and centrifuged at 500 g at 4° C. for 5 min, and then the supernatant was discarded. Then 100 μL of a fluorescent secondary antibody (goat anti-human IgG (H+L) secondary antibody, Alexa Fluor® 488 conjugate, Invitrogen, #A11013, diluted at the ratio of 1:1000) was added to each well. The plate was incubated away from light at 4° C. for 30 min. The cells in each well were then rinsed twice with 200 μL of pre-cooled PBS and centrifuged at 500 g at 4° C. for 5 min, and then the supernatant was discarded. Finally, the cells in each well were resuspended in 200 μL of pre-cooled PBS, and the fluorescence signal values were read using a BD FACS CANTOII.

[2] = biological target: T2, human PD-L1 on CHO-K1 cells overexpressing human PD-L1 (human, UniProt Q9NZQ7 19-290); assay: flow cytometry on CHO-K1 cells overexpressing human PD-L1 (CHO-K1-hPD-L1) [continued) E]
T2 construct: whole, on cells; also called CHO-K1/hPD-L1; CHO-K1-hPD-L1
Procedure: as §1, with “The plate was incubated away from light at 4° C. for 30 min. The cells in each well were then rinsed twice with 200 μL of pre-cooled PBS and centrifuged at 500 g at 4° C. for 5 min, and then the supernatant was discarded.” left out

[3] = biological target: T2, human PD-L1 on CHO-K1 cells …; assay: flow cytometry on CHO-K1 cells overexpressing human PD-L1 (CHO-K1/hPD-L1) [continued) E]
Procedure: (§2) In the example, in order to study the in vitro binding activity of the PD-L1 antigen-binding protein to human/cynomolgus monkey PD-L1, cell-level binding experiments were performed using CHO-K1 cell strains overexpressing human PD-L1 (CHO-K1/hPD-L1, GenScript, M00543) or CHO-K1 cell strains overexpressing cynomolgus monkey PD-L1 (CHO-K1/cynoPD-L1, GenScript, M00573). Briefly, the PD-L1 cells were digested and resuspended in an F-12K complete medium, and the cell density was adjusted to 1×10⁶ cells/mL. The cells were seeded in a 96-well V-bottom plate (Corning, 3894) at 100 μL/well, followed by the addition of the test antigen-binding proteins serially diluted 5-fold with concentrations that were twice the final concentrations at 100 μL/well. The mixtures were well mixed. The highest final concentration of the antigen-binding proteins was 100 nM. A total of 8 concentrations were set. An isotype antibody hIgG1 iso was used as a control. The cells were incubated away from light at 4° C. for 1 h. Thereafter, the cells in each well were rinsed twice with 100 μL of pre-cooled PBS, and centrifuged at 500 g at 4° C. for 5 min, and then the supernatant was discarded. Then 100 μL of a fluorescent secondary antibody (goat anti-human IgG (H+L) secondary antibody, Alexa Fluor 488 conjugate, Invitrogen, A11013, diluted at the ratio of 1:1000) was added to each well. The plate was incubated away from light at 4° C. for 30 min. The cells in each well were then rinsed twice with 200 μL of pre-cooled PBS and centrifuged at 500 g at 4° C. for 5 min, and then the supernatant was discarded. Finally, a pre-cooled PBS was added at 200 μL/well to resuspend the cells. Fluorescence signal values were read using a BD FACS CANTOII. Fluorescence signal values were read using a flow cytometer BD FACS CANTOII or FACS ACEA, and the data were processed and analyzed using FlowJo v10 (FlowJo, LLC) software. The data were processed and analyzed by plotting using GraphPad Prism 8 software, and binding curves, EC50 values and other parameters were acquired through four-parameter nonlinear fitting.

[4] = biological target: T3, cynomolgus monkey PD-L1 on CHO-K1 cells overexpressing cynomolgus monkey PD-L1 (cynomolgus monkey, UniProt G7PSE7 19-290); assay: flow cytometry on CHO-K1/cynoPD-L1 cells
T3 construct: also called CHO-K1/cynoPD-L1; GenScript M00573
Procedure: as §2

[5] = biological target: T4, human PD-L1 protein with histidine tag (ACROBiosystems #PD-1-H5258) (human, UniProt Q9NZQ7 19-238); assay: BLI (Octet Red96e); His-tagged human PD-L1 captured on HIS1K sensor, antibody at 60 nM; 1:1 fit
T4 construct: Bought protein; also called His PD-L1; human PD-L1 proteins; not shown: histidine tag
Procedure: In this example, affinity determination was performed on the affinity-matured mutants of PR002082 using an Octet Red96e instrument. […] The binding kinetics between the antigen and the antibody was analyzed by the biolayer interferometry (BLI) technique using an Octet molecular interaction analyzer (ForteBio, model: Octet Red96e).
When the affinity of the antigen for the antibody was determined, the rotation speed of the sensor was set at 1000 rpm/min. The 2 HIS1K sensors placed in a column were first equilibrated for 10 min in test buffer, then His PD-L1 was captured with the HIS1K sensor at a capture height of 0.9-1.1 nm, then the HIS1K sensor was equilibrated for 2 min in the test buffer, then the HIS1K sensor was bound to the antigen-binding protein (60 nM and 0 nM) for 3 min, and finally the mixture was dissociated for 15 min. The HIS1K sensor was immersed in a 10 mM glycine solution (pH 1.5) for regeneration to elute the proteins bound to the sensor.
When data analysis was performed using Octet Data Analysis software (Fortebio, version 11.0), the reference signals were subtracted by a single reference mode (reference well), the data were fitted by a “1:1 Local/full fitting” method, and the kinetic parameters of the binding of the antigen to the antibody were calculated to obtain Kₒₙ (1/Ms) values, Kdis (1/s) values and KD (M) values.

[6] = biological target: T2, human PD-L1 on CHO-K1 cells …; assay: flow cytometry on CHO-K1 cells overexpressing human PD-L1 (CHO-K1/hPD-L1) [continued) F]
Procedure: as §2

[7] = biological target: T2, human PD-L1 on CHO-K1 cells …; assay: flow cytometry on CHO-K1 cells overexpressing human PD-L1 (CHO-K1-hPD-L1) [continued) F]
Procedure: as §1, with “The plate was incubated away from light at 4° C. for 30 min. The cells in each well were then rinsed twice with 200 μL of pre-cooled PBS and centrifuged at 500 g at 4° C. for 5 min, and then the supernatant was discarded.” left out

T2 sequence (Q9NZQ7 19-290): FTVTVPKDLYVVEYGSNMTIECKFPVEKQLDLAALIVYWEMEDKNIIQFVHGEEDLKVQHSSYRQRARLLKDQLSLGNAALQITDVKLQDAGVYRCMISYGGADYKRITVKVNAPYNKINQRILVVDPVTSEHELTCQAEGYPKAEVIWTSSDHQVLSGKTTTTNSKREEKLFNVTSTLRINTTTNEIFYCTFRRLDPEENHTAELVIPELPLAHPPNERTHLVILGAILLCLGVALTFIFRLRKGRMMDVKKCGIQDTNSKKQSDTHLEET
T4 sequence (Q9NZQ7 19-238 limits assumed): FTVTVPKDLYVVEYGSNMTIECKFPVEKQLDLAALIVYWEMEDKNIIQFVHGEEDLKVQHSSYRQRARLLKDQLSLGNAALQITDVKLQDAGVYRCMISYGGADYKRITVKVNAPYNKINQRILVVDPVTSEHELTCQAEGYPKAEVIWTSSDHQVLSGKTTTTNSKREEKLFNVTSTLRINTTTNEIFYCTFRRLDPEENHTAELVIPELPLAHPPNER
T3 sequence (G7PSE7 entry or part of it limits assumed): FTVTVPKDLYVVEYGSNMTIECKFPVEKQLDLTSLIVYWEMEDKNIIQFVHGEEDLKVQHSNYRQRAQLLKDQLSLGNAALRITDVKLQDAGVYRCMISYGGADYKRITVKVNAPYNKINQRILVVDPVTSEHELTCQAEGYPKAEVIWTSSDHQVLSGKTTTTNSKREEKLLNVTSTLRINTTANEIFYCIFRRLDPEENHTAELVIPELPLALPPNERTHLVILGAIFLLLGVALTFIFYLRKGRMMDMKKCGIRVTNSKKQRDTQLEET

| Binder | EC50 [1] [nM] | EC50 [2] [nM] | EC50 [3] [nM] | Maximum MFI [3] [MFI] | binding result [4] | Kd [5] [nM] | koff [5] [s⁻¹] | kon [5] [M⁻¹ s⁻¹] | EC50 [6] [nM] | Maximum MFI [6] [MFI] | EC50 [7] [nM] |
| --- | --- | --- | --- | --- | --- | --- | --- | --- | --- | --- | --- |
| PR003739 (bispecific antibody, human IgG1, kappa, L234A L235A, light chain of PR001408; also called CD73×PD-L1 bispecific antibody PR003739) heavy: not shown light: DIQLTQSPSFLSTSVGDRVTITCRASQGISSYLAWYQQKPGKAPKLLIYAASTLQSGVPSRFSGSGSGTEFTLTISSLQPEDFATYYCQQLNSYPYTFGQGTELEIKRTVAAPSVFIFPPSDEQLKSGTASVVCLLNNFYPREAKVQWKVDNALQSGNSQESVTEQDSKDSTYSLSSTLTLSKADYEKHKVYACEVTHQGLSSPVTKSFNRGEC | 0.99 | 1.66 | – | – | – | – | – | – | – | – | – |
| PR003836 (antibody, human IgG1, kappa, L234A L235A, V domains shown, Anti-CD73 IgG (human IgG1 constant region, human Ig kappa), PTM removed; also called anti-CD73 antibody PR003836; anti-CD73 H2L2 antibody) VH: QVQLVESGGGVVQPGRSLRLSCAASGFTFSSYDMHWVRQAPGKGLEWVASTWYDASKKYYADSVKGRFTISRDNSKNTLYLQMNSLRAEDTAVYYCAKGGDLLTGPNAFDIWGQGTMVTVSS VL: DIQMTQSPSTLSASVGDRVTITCRASQSISSWLAWYQQKPGKAPKLLIYKASSLESGVPSRFSGSGSGTEFTLTISSLQPDDFATYYCQQYDNYENTFGQGTKLEIKR | 1.1 | – | – | – | – | – | – | – | – | – | – |
| PR005867 (antibody, human IgG1, V domains shown, The HC entry is used) VH: QVQLVESGGGVVQPGMSLRLSCAASGFTFSSYGMYWVRQAPGKGQEWVAIIWYDGTKKHYADSVKGRFTISRDNSKNTLYLEMNSLRVEDTAVYYCAKNRAIFGVIPDDSDIRGQGTMVTVSS | – | – | 1.14 | 388000 | binds | 1.85 | 0.000468 | 253000 | – | – | – |
| PR005869 (antibody, human IgG1, V domains shown, The HC entry is used) VH: QVQLVESGGGVVQPGMSLRLSCAASGFTFSSYGMYWVRQAPGKGQEWVAIIWYDGTKKHYADSVKGRFTISRDNSKNTLYLEMNSLRVEDTAVYYCAKNRALFGVIPDDSDIRGQGTMVTVSS | – | – | 1.13 | 393000 | binds | 1.09 | 0.000262 | 241000 | – | – | – |
| PR006247 (antibody, human IgG1, V domains shown, The HC entry is used) VH: QVQLVESGGGVVQPGMSLRLSCAASGFDFSSYGMYWVRQAPGKGQEWVASIRYTGTEKHYADSVKGRFTISRDNSKNTLYLEMNSLRVEDTAVYYCAKNRALFGVIPDASDIRGQGTMVTVSS | – | – | – | – | binds | 1.18 | 0.000219 | 185000 | 1.01 | 410000 | – |
| PR005868 (antibody, human IgG1, V domains shown, The HC entry is used) VH: QVQLVESGGGVVQPGMSLRLSCAASGFTFSSYGMYWVRQAPGKGQEWVAIIWYDGTKKHYADSVKGRFTISRDNSKNTLYLEMNSLRVEDTAVYYCAKNRALFGVIPDASDIRGQGTMVTVSS | – | – | 1.06 | 393000 | binds | 1.92 | 0.000386 | 201000 | – | – | – |
| PR006245 (antibody, human IgG1, V domains shown, The HC entry is used) VH: QVQLVESGGGVVQPGMSLRLSCAASGFDFSSYGMYWVRQAPGKGQEWVASIRYTGTEKHYADSVKGRFTISRDNSKNTLYLEMNSLRVEDTAVYYCAKNRAIFGVVPDASDIRGQGTMVTVSS | – | – | – | – | binds | 1.09 | 0.000162 | 149000 | 0.964 | 405000 | – |
| PR004295 (bispecific antibody, human IgG1, kappa, L234A L235A, light chain of PR003836; also called CD73×PD-L1 bispecific antibody PR004295) heavy: not shown light: DIQMTQSPSTLSASVGDRVTITCRASQSISSWLAWYQQKPGKAPKLLIYKASSLESGVPSRFSGSGSGTEFTLTISSLQPDDFATYYCQQYDNYENTFGQGTKLEIKRTVAAPSVFIFPPSDEQLKSGTASVVCLLNNFYPREAKVQWKVDNALQSGNSQESVTEQDSKDSTYSLSSTLTLSKADYEKHKVYACEVTHQGLSSPVTKSFNRGEC | 2.09 | – | – | – | – | – | – | – | – | – | 2.17 |
| PR001408 (antibody, human IgG1, kappa, L234A L235A, V domains shown, Anti-CD73 IgG (human IgG1 constant region, human Ig kappa), PTM removed; also called anti-CD73 antibody PR001408; anti-CD73 H2L2 antibody) VH: QVQLVESGGGVVQPGRSLRLSCAASGFTFYSYGMHWVRQTPGKGLEWVALIWYDGSNNYYADSVKGRFTISRDNSKNTLYLQMNSLRAEDTAVYYCATERSSSFYYYYGMDVWGQGTTVTVSS VL: DIQLTQSPSFLSTSVGDRVTITCRASQGISSYLAWYQQKPGKAPKLLIYAASTLQSGVPSRFSGSGSGTEFTLTISSLQPEDFATYYCQQLNSYPYTFGQGTELEIKR | 0.342 | – | – | – | – | – | – | – | – | – | – |

From patent US20240269276A1 (HARBOUR BIOMED SHANGHAI, published 2024)
